Measurements reported in patent publication US10385380B2, “Personalized protease assay to measure protease activity in neoplasms” (The Regents of the University of California, priority 2014, dated 2019).
“Also recorded” adds a separate entry of the source. Where two headings read alike, the source gives them in different places. Where no end group is shown, it is not given here. [ ]: non-standard residue; d: D form. hPhe = N[C@@H](CCc1ccccc1)C(=O)O

Key:
[1] = molecular target: T1, MMP-2 (Homo sapiens, UniProt P08253); assay: Cell uptake after cleavage of linker by MMP-2; assay type: cell-based; details: cleaved by MMP-2
T1 sequence (P08253 110-660): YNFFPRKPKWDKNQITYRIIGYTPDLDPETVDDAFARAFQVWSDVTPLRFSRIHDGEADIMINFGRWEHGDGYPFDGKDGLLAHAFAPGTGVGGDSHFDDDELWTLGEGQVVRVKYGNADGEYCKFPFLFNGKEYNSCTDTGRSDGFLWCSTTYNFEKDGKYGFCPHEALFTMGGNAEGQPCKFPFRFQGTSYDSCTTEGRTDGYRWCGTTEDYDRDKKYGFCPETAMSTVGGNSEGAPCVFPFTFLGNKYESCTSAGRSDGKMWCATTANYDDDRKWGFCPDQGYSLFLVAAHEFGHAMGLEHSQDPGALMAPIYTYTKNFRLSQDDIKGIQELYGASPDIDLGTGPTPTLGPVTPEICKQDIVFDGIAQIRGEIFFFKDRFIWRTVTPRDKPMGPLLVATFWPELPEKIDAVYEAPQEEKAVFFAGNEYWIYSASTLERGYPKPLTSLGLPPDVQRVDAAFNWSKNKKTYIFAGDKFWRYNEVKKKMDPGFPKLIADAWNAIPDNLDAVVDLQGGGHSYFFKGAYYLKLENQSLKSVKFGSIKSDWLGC
Source text: For example, a linker X that includes the amino-acid sequence PLGLAG (SEQ ID NO: 1) may be cleaved by the metalloproteinase enzyme MMP-2 (a major MMP in cancer and inflammation). Cleavage of such a linker X occurs between the central G and L residues, causing cell uptake to increase by 10 to 20-fold. A great deal is known about the substrate preferences of different MMPs, so that linkers X may be designed that are able to bias X to be preferentially sensitive to particular subclasses of MMPs, or to individual members of the large MMP family of proteinases. For example, in some embodiments, linkers X designed to be cleaved by membrane-anchored MMPs are particularly employed because their activity remains localized to the outer surface of the expressing cell. In alternative embodiments, linkers X designed to be cleaved by a soluble secreted MMP are employed where diffusion of cargo C away from the exact location of cleavage may be desired, thereby increasing the spatial distribution of the cargo. Other linkers X cleavable by other MMPs are discussed throughout the application.

[2] = molecular target: MMP-14 (Homo sapiens, UniProt P50281); assay: Cleavage of ACPP substrates by purified MMP-14; assay type: biochemical; details: versus MMP-2 and MMP-9
Protocol: (§1) FIG. 7 describes selectivity for substrates for MMP2, 9 and 14 (1 uM peptide 20 nM enzyme). A) MT1 selective RSHPHfeTLY (SEQ ID NO: 19).
(§2) FIG. 8A, FIG. 8B and FIG. 8C describe selectivity for substrate cut with MMP-2, MMP9 and MMP-14.
(§3) To generate new substrates for MMPs, amino acids were substituted at key position at and near the cleavage site based on the following rule derived by recent work by Ratnikov et al^26 that the amino acid at a certain position must improve cleavage by the specific enzyme and reduce cleavage by other related enzymes. For increased specificity, an amino acid should be red for the enzyme of interest compared green for the other enzymes at the same substitution position (FIG. 36A). These substrates will be tested by treating 5 μM peptide with 20 nM of each enzyme for 2 hours and analyse by gel electrophoresis.
(§4) FAM/Cy5 ratiometric versions of RACPPs with these sequences were made and tested to confirm selectivity. The preferred form Cy5/Cy7 ratiometric versions for in vivo testing with a pegylated carrier to help with solubility is currently being synthesized. For MMP 11 a similar approach will be adopted in finding selective substrates.^26.

[3] = molecular target: MMP9 (Homo sapiens, UniProt P14780); assay: Cleavage of ACPP substrates by purified MMP-9; assay type: biochemical; details: versus MMP-2 and MMP-14
Chain of MMP9 (P14780 94-707): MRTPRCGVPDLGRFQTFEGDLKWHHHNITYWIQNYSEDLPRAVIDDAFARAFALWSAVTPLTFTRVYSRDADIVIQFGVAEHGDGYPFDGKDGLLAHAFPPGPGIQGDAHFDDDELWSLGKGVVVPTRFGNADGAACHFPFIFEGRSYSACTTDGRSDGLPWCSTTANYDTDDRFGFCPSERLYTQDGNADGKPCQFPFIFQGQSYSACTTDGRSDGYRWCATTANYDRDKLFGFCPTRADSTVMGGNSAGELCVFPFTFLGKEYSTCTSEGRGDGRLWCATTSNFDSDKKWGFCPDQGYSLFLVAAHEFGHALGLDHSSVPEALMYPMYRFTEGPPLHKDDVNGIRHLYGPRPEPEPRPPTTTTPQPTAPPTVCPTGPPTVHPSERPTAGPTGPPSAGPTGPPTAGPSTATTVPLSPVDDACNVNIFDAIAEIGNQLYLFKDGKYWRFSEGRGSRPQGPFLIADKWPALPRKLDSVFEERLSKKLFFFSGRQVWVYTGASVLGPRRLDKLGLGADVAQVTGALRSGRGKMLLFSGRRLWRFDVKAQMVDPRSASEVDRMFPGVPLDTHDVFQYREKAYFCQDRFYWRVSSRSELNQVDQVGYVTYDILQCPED
Protocol: as §1, §2, §3, §4

[4] = molecular target: T1, MMP-2; assay: Cleavage of ACPP substrates by purified MMP-2; assay type: biochemical; details: versus MMP-9 and MMP-14
Protocol: as §1, §2, §3, §4

[5] = molecular target: MT2-MMP (Homo sapiens, UniProt P51511); assay: Cleavage of RS-(Cit)-G-(homoF)-YLY derivatives by MT2-MMP; assay type: biochemical
Chain of MT2-MMP (P51511 132-669, species assumed): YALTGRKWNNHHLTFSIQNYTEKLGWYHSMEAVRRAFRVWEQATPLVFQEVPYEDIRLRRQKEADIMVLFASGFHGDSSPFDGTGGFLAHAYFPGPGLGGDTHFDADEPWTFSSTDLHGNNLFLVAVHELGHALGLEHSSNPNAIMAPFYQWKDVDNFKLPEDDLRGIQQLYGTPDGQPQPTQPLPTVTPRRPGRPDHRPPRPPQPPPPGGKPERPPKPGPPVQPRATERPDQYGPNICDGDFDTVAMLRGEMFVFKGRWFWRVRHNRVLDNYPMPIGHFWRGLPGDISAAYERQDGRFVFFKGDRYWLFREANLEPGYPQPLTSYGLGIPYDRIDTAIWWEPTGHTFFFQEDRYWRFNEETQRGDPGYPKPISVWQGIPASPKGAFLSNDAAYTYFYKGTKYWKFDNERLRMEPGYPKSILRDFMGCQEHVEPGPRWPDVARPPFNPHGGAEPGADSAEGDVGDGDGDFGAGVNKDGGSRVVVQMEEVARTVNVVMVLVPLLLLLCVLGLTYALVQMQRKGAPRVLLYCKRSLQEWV

[6] = molecular target: urokinase plasminogen activator (uPA) (Homo sapiens, UniProt P00749); assay: Screen of protease substrates for cleavage by uPA; assay type: biochemical; details: substrate in the context of an ACPP
Protocol: (§5) To generate novel RACPP species that are selective for uPA, a set of protease substrates were screened that were diverse and likely cleaved by serine protease in that they contain either a lysine or arginine residue flanked by diverse amino acids. […] Several other substrates that were reported to be cleaved by uPA were also tested but were not cleaved possible because the constrained structure of the substrate within the context of an ACPP.
To generate novel RACPP species that are specific for uPA, a set of protease substrates were screened that were diverse and likely cleaved by serine protease in that they contain either a lysine or arginine residue flanked by diverse amino acids.

[7] = molecular target: tPA (Homo sapiens, UniProt P00750); assay: Screen of protease substrates for cleavage by tPA; assay type: biochemical; details: compared with uPA
Chain of tPA (P00750 36-562, species assumed): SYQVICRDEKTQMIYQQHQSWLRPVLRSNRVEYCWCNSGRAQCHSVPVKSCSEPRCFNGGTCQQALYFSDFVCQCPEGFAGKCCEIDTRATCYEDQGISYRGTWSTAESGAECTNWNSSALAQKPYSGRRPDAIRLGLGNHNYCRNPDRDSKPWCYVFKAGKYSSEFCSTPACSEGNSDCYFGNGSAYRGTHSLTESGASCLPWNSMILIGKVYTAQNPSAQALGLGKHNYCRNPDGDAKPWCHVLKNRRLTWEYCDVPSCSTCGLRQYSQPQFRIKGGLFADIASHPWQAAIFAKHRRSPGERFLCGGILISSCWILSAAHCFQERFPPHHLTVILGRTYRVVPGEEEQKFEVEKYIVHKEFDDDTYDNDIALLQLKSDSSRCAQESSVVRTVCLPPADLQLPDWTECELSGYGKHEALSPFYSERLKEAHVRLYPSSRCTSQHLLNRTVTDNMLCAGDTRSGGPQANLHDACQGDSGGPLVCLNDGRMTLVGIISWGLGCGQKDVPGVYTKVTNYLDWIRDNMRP
Protocol: as §5

[8] = tested on: multiple MMPs; assay: Specificity of first generation cleavable site among MMPs; assay type: biochemical
Source text: In contrast to mRNA expression or copy number detection methods, RACPPs detect in vivo protease activity, thus bypassing the complicated interplay between transcription/translation, pro- and active forms of the enzymes, as well as the presence of inhibitors/activators etc. It was shown that RACPP uptake correlates with tumor burden^15 and with tumor characteristics corresponding to poor survival^18.
RACPPs are capable of monitoring protease activity in real time living animal models of cancer. […] To tease out the involvement of specific individual proteases involved in the various stages of cancer growth, invasion and metastasis, it was sought to identify RACPP cleavable sites that are specific for individual select proteases.

PLGLAG (cleavable linker)
increase of cell uptake after cleavage between the central G and L residues [1]: 10 to 20 fold

RS-(Cit)-G-(homoF)-YLY
cleavage by / selectivity for MMP-14 (MT1-MMP) [2]: MMP14 selective

SNPYK-Y (SNPYKY; cleavable linker)
cleavage by / selectivity for MMP9 [3]: MMP9 selective | cleavage by / selectivity for MMP9 ([3]; listed as SNPYKY): selective

TIAH/LH
cleavage by / selectivity for MMP-2 [4]: selectively cleaved

TLSE-LH (TLSELH; cleavable linker)
cleavage by / selectivity for MMP-2 [4]: MMP-2 selective

RSHP[hPhe]TLY
cleavage by / selectivity for MMP-14 (MT1-MMP) [2]: MMP14 selective | cleavage by / selectivity for MMP-14 (MT1-MMP) ([2]; listed as RSHPHfeTLY): MT1 selective

TIAHLA (cleavable linker)
cleavage by / selectivity for MMP-2 [4]: MMP2 selective

RS-Q-G-(homoF)-YLY (RSQG[hPhe]YLY)
cleavage by MT2-MMP [5]: significant cleavage

YGRAAA (cleavable linker)
cleavage by uPA [6]: efficiently cleaved; also recorded: increase in Cy5/Cy7 signal ratio | cleavage by tPA [7]: to a lesser extent

RSHG-(homoF)-FLY (RSHG[hPhe]FLY)
cleavage by / selectivity for MMP-14 (MT1-MMP) [2]: highly selective and efficiently cleaved | cleavage by / selectivity for MMP-14 (MT1-MMP) ([2]; listed as RSHG(Hfe)FLY): selective

PLGC(Me)AG
cleavage by multiple MMPs (lack of specificity) [8]: cut by multiple MMPs | cleavage by multiple MMPs (lack of specificity) ([8]; listed as PLGC(me)AG): cleaved by multiple proteases

SNPYG-Y (SNPYGY; cleavable linker)
cleavage by / selectivity for MMP9 [3]: MMP9 selective
